Consider one molecule from patent US20230233607A1 (University of California, published 2023).

The target of one test is LexA-CIB1 (No biLINuS). The test is described as follows: cell-based or functional assay.
The next test has as its target T1, LexA-CIB1-biLINuS.
T1 chain: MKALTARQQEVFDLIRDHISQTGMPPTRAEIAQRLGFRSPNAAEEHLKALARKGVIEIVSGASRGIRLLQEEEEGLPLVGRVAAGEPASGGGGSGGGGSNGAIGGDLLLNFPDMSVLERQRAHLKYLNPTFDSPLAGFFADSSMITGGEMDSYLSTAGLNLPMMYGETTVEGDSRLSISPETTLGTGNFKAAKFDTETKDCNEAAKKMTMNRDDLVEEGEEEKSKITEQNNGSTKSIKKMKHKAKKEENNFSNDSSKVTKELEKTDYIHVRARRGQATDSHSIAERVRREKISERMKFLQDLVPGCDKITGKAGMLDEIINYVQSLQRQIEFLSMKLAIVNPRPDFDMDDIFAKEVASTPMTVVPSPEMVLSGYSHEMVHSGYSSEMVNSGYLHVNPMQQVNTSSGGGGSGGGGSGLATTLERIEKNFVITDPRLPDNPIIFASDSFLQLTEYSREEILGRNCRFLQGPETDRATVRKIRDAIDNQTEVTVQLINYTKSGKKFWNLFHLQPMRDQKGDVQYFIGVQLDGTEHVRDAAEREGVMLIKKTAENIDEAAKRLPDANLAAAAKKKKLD
The test is described as follows: cell-based or functional assay.

B1: CRY2PHR-VPR (other)
chain: MKMDKKTIVWFRRDLRIEDNPALAAAAHEGSVFPVFIWCPEEEGQFYPGRASRWWMKQSLAHLSQSLKALGSDLTLIKTHNTISAILDCIRVTGATKVVFNHLYDPVSLVRDHTVKEKLVERGISVQSYNGDLLYEPWEIYCEKGKPFTSFNSYWKKCLDMSIESVMLPPPWRLMPITAAAEAIWACSIEELGLENEAEKPSNALLTRAWSPGWSNADKLLNEFIEKQLIDYAKNSKKVVGNSTSLLSPYLHFGEISVRHVFQCARMKQIIWARDKNSEGEESADLFLRGIGLREYSRYICFNFPFTHEQSLLSHLRFFPWDADVDKFKAWRQGRTGYPLVDAGMRELWATGWMHNRIRVIVSSFAVKFLLLPWKWGMKYFWDTLLDADLECDILGWQYISGSIPDGHELDRLDNPALQGAKYDPEGEYIRQWLPELARLPTEWIHHPWDAPLTVLKASGVELGTNYAKPIVDIDTARELLAKAISRTREAQIMIGAAPASPKKKRKVEASSPGIRRLDALISTSLYKKAGYKEASGSGRADALDDFDLDMLGSDALDDFDLDMLGSDALDDFDLDMLGSDALDDFDLDMLINSRSSGSPKKKRKVGSQYLPDTDDRHRIEEKRKRTYETFKSIMKKSPFSGPTDPRPPPRRIAVPSRSSASVPKPAPQPYPFTSSLSTINYDEFPTMVFPSGQISQASALAPAPPQVLPQAPAPAPAPAMVSALAQAPAPVPVLAPGPPQAVAPPAPKPTQAGEGTLSEALLQLQFDDEDLGALLGNSTDPAVFTDLASVDNSEFQQLLNQGIPVAPHTTEPMLMEYPEAITRLVTGAQRPPDPAPAPLGAPGLPNGLLSGDEDFSSIADMDFSALLGSGSGSRDSREGMFLPKPEAGSAISDVFEGREVCQPKRIRPFHPPGSPWANRPLPASLAPTPTGPVHEPVGSLTPAPVPQPLDPAPAVTPEASHLLEDPDEETSQAVKALREMADTVIPQKEEAAICGQMDLSHPPPRGHLDELTTTLESMTEDLNLDSPLTPELNEILDTFLNDECLLHAMHISTGLSIFDTSLF
Consider B1, for which the “induction of Fluc activity normalized by Rluc upon light stimulation compared to the dark control (HEK 293T)” value in the test with LexA-CIB1 (No biLINuS) turned out to be 68 fold. Further, in the test with LexA-CIB1-biLINuS, the “increase of Fluc signal in the light-stimulated group comparing to the dark group (Jurkat cells)” value was above 1000 fold; the “induction of Fluc activity normalized by Rluc upon light stimulation compared to the dark control (HEK 293T)” value was 133 fold; the “mean cellular fluorescence intensity of mNeonGreen reporter, dark group, compared to the non-transfected cells (HEK 293T)” value came out at 1.7 fold; the “mean cellular fluorescence intensity of mNeonGreen reporter, light group, compared to the non-transfected cells (HEK 293T)” value is 61 fold.
